The record followed here is article PMC7494283 (Cell, 2020).

The labels stand for the following.
B1: S304 mAb (IgG1) (antibody, V domains shown)
VH: EVQLVESGGGLVQPGGSLRLSCAASGFTFSSYDMHWVRQTTGKGLEWVSTIGTAGDTYYPDSVKGRFTISREDAKNSLYLQMNSLRAGDTAVYYCARGDSSGYYYYFDYWGQGTLLTVSS
VL: DIEMTQSPSSLSAAVGDRVTITCRASQSIGSYLNWYQQKPGKAPKLLIYAASSLQSGVPSRFSGSGSGTDFTLTISSLQPEDFAIYYCQQSYVSPTYTFGPGTKVDIK
B2: S2A4 mAb (IgG1) (antibody, V domains shown)
VH: EVQLVESGGGLVQPGGSLRLSCAASGFTFSSYWMNWVRQAPGKGLEWVANIKQDGSEKYYVDSVKGRFTISRDNAKNSLFLQMNSLRAEDTAVYYCARVWWLRGSFDYWGQGTLVTVSS
VL: NFMLTQPHSVSESPGKTVTISCTGSSGSIASNYVQWYQQRPGSAPTTVIYEDNQRPSGVPDRFSGSIDSSSNSASLTISGLKTEDEADYYCQSYDSSNHVVFGGGTKLTVL
B3: S2H14 mAb (IgG1) (antibody, V domains shown)
VH: not shown
VL: NFMLTQPHSVSESPGKTVTISCTRSSGSIASNYVQWYQQRPGSSPTTVIYEDNQRPSGVPDRFSGSIDSSSNSASLTISGLKTEDEADYYCQSYDSSNQVFGGGTKLTVL

The target in this assay is SARS-CoV RBD (SARS-CoV (human), isolate , UniProt P59594). The experiment in a line: ELISA.
For the molecule B1, the binding result is “binds”.
Then B2, with “no binding”.
Consider B3, for which the binding result was “no binding”.
